Assay results from paper PMC6687201, “Atg11 tethers Atg9 vesicles to initiate selective autophagy” (PLoS Biology, 2019).

T1: Atg9^core reconstituted in proteoliposomes (yeast, UniProt Q12142 281-779)
T1 construct: Atg9 core, yeast; Liposomes: 20 mol% cholesterol, 10 mol% POPE, 60 mol% POPC, 10 mol% POPS; protein:lipid 1:200; also called Atg9-PLs; Atg9 vesicles; source: reconstituted in liposomes by rapid dilution
T1 sequence (looked up): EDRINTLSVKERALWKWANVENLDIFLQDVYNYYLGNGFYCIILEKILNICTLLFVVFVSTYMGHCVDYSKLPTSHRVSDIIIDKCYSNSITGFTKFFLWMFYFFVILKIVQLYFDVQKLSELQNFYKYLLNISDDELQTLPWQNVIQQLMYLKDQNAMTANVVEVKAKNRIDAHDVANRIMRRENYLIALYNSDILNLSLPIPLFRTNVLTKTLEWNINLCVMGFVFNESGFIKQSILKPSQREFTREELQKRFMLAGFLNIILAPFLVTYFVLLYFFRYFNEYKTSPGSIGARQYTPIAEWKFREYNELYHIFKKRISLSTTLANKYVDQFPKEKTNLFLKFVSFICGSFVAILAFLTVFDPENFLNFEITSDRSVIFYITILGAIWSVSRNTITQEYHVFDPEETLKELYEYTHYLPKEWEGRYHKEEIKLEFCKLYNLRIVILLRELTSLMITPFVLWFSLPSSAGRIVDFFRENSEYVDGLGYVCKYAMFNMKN

B1: Atg32^SE (Atg32^1-376 with the phosphomimetic mutation S114E) (domain or fragment, yeast, UniProt P40458 1-376, looked up)
chain: MVLEYQQREGKGSSSKSMPPDSSSTTIHTCSEAQTGEDKGLLDPHLSVLELLSKTGHSPSPMGQNLVTSIDISGNHNVNDSISGSWQAIQPLDLGASFIPERCSSQTTNGSILESSDTSEEEQELLQAPAADIINIIKQGQEGANVVSPSHPFKQLQKIISLPLPGKEKTPFNEQDDDGDEDEAFEEDSVTITKSLTSSTNSFVMPKLSLTQKNPVFRLLILGRTGSSFYQSIPKEYQSLFELPKYHDSATFPQYTGIVIIFQELREMVSLLNRIVQYSQGKPVIPICQPGQVIQVKNVLKSFLRNKLVKLLFPPVVVTNKRDLKKMFQRLQDLSLEYGEDVNEEDNDDEAIHTKSRSYCRNKKAENSKKKSPKSN
modifications: PacificBlue label in the GUV experiment; Sulfo-LC-SDA conjugated to primary amines in the cross-linking experiment
notes: Atg32, mitochondrial cargo receptor, yeast; N-terminal cytoplasmic domain, residues 1-376; also called Atg32^1-376,SE; Sulfo-LC-Atg32^SE
B2: recombinant purified Atg11 (Atg11-His6) (natural protein, yeast)
chain: GPMADADEYSTAPTQQEITPLQTTATIINAISGECITTNVDFFVSLDKFKQFIARKWKIPPDQLLILLPYGNKLKPSMFKELLINRSFTLNDFYVYDRRLFSLVSKPTPTNLLTSKDSNPMNSPNSNDLTETLEYLIKNSHISQYQGSDTIMIKPMPSPLEDADVDLSRLNYHSVTSLLTTNLGWLSALEIDVHYFKSLIPDIIAHIKRIFDGLTVCSQYLKLYCFDVESLYNSNVQFLNQLVDNGMTSKWEKCFNDTLSKLTALEGDSLQKFINIESLLENEKSVKILNHSINGKLNKIKREIDENASFRDIITVNIDRLRQMFTPNESKFELEDQMAESFEVLVSEMRTRSRNVLDKEEEEFNSQEFLKSMNVMLEKDKKESVKTLFTISQALYSQIGELIDLKKSLQKHAVAILGNIAFTQMEILGIKRLLLNECNKDLELYKKYEVEFAQVEDLPLIYGLYLIEKYRRLSWFQQILSFISNFNQDLELFKQNELRTRNKWVKNFGSIATVFCEDLLSSSDFKRLNEYHSHTSPPNEDEEDENENSIANYRQDLVKVSQAIDNYMTQIKETDVSEPIIDLLSKTLFETKRFHIIYSNFKNNNNNSSNGNSISPEGSIALKSDDVVKGYKTRIKKLESLLHEFQYSDIGHWPQGVLNTHLKPFRGSATSINKKKFLGASVLLEPANISEVNIDSVSQANNHQIQELESNVDDLLHQLQLLKEENNRKSMQISEMGKKISDLEVEKTAYRETLTNLNQELARLTNEEQSHRTEIFTLNASFKKQLNDIISQDNEKIEKLTGDYDDVSKSRERLQMDLDESNKKHEQEVNLLKADIERLGKQIVTSEKSYAETNSSSMEKGEKFETIPLAEDPGRENQISAYTQTLQDRIFDIISTNIFILENIGLLLTFDNNNNIQIRRVKGLKKGTAQSNILDESTQMLDAHDNSLIKSPVFQKLKDEYELIKSVANGSEKDTQQSIFLGNITQLYDNKLYEVAVIRRFKDIETLAKKLTKENKIKRTLLERFQREKVTLRNFQIGDLALFLPTRENVNSVGSMSSSTSSLSSSFSSVDLSTPPPLDAMSIQSSPSVIHSNVINQASISGRDKNKLMRPWAAFTAFEESTRYFLKDEKGLTKGKEWFVGRIVTLEHFVADSPSNNPFRLPKGSVWFQVTAVVVSYQGV
modifications: Atto565 label in the GUV experiments
notes: N-terminal residual glycine-proline from PreScission protease digestion; Atg11, yeast; expressed from pCoofy37-Atg11; measured molecular weight 136 kDa; also called His-tagged Atg11; Atg11^Atto565; source: E. coli BL21 (DE3), coexpressed with chaperones from pG-KJE8, purified (Ni-NTA, PreScission digestion, gel filtration); not shown: His6, C-terminal, kept

Experiments:
[1] = target: B2; test: cross-linking; Sulfo-LC-SDA (spacer arm 12.5 Å) conjugated to primary amines of Atg32^SE, mixed with Atg11, 365 nm UV light for up to 15 min, SDS-PAGE; details: both partners purified
[2] = target: T1, Atg9^core reconstituted in …; test: co-floatation with proteoliposomes; Atg9-PLs mixed with one interaction partner in a Nycodenz step gradient, ultracentrifugation, floated fraction on SDS-PAGE; SUVs lacking Atg9^core as control; details: both partners purified
[3] = target: the molecule itself; test: AUC; sedimentation velocity of purified Atg11-His6, analysed with SEDFIT; also at 1.63 mg/ml and 0.15 mg/ml

| Binder | binding result [1] | stoichiometry N [2] | stoichiometry N [3] |
| --- | --- | --- | --- |
| B1 | binds |  |  |
| B2 |  | 1 | 2 |
